The values that follow are results of earlier work, collected in paper PMC4847942.

In general, Kd refers to the free concentration of one partner at which half of the binding sites on the other are occupied at equilibrium, for simple one-to-one binding.

Series [1] deals with Bcl-XL (Homo sapiens) (UniProt Q07817).
Series [2] shares this target. The source holds these as a separate data set.

Where two headings read alike, the source gives them in different places.

Sequence of UniProt Q07817 (Q07817 whole entry): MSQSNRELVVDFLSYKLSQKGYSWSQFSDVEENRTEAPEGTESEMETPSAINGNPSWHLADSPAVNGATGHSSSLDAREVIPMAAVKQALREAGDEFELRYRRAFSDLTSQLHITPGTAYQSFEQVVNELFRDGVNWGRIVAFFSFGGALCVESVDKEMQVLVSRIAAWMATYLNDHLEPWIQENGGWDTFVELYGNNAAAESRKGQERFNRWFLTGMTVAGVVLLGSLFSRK

For the substance “stapled Bid BH3 helix BH3 (from UniProt P55957)”, the Kd in series [1] is 39 nM.
With Bid BH3 helix BH3 (from UniProt P55957), the Kd in series [2] was 269 nM.
